According to patent US20250230251A1 (Bristol-Myers Squibb, published 2025):

How the values were obtained:
huIL-18Rβ-HisAvi = target: T1, huIL-18Rβ-HisAvi (human, UniProt O95256 20-356, biotinylated in the Octet blocking assay); assay: SPR T200, pH 7; sample 2 w 40C
T1 construct: Soluble analyte in all SPR runs; captured on streptavidin sensors in the Octet assay; also called human IL-18Rβ; human IL-18Rβ-Avi-His
T1 sequence: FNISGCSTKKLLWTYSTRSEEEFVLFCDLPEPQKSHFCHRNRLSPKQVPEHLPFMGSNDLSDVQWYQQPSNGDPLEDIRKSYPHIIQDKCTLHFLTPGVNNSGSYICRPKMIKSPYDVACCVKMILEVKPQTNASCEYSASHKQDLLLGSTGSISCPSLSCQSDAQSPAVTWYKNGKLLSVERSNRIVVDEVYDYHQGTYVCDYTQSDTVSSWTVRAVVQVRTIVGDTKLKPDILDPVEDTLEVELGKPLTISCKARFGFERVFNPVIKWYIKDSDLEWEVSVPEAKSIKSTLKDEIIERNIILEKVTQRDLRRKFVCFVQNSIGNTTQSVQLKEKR

[1] = target: T2, cynomolgus monkey IL-18Rβ on cells (cynomolgus monkey, UniProt A0A7N9D6S0 20-598); assay: cell-based or functional assay
T2 sequence: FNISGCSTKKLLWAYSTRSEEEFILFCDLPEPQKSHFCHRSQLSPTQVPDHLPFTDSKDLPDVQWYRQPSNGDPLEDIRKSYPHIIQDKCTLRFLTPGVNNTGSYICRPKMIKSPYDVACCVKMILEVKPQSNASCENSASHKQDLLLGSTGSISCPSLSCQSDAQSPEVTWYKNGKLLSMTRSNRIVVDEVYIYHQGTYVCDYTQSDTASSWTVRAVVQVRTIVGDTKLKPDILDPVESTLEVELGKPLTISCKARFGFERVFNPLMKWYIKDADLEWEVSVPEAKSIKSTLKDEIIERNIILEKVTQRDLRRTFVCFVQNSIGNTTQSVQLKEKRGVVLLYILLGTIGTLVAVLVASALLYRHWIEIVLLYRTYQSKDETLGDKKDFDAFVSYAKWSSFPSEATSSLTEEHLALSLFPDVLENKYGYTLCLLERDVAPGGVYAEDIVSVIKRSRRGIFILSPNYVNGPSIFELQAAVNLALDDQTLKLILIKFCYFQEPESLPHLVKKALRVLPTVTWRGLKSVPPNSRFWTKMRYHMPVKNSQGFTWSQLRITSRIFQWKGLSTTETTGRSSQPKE

B1: P20-V1 (antibody, human IgG1, kappa, V domains shown)
VH: QVQLQESGPGLVKPSETLSLTCTVSGGSINNYYWSWIRQPPGKGLEWIGYIFYSGTTNYNPSLKSRVTISVDTSKNQFSLKLSSVTAADTAVYYCARDVGIAARNSYYYVMDVWGQGTTVTVSS
VL: AIQLTQSPSSLSASVGDRVTITCRASQGISSALAWYQQKPGKAPKFLIYEASSLESGVPSRFSGSGSGTDFTLTISSLQPEDFATYYCQQFNSYPITFGQGTRLEIKR
notes: Variant of P20
A Kd (huIL-18Rβ-HisAvi) of 0.13 nM, a koff (huIL-18Rβ-HisAvi) of 3.7e-05 s⁻¹ and a kon (huIL-18Rβ-HisAvi) of 290000 M⁻¹ s⁻¹ were found for B1 in this work. The “IC50, IFNg, cyno whole blood IL-18+IL-12, Average” value [1] was 4.3 nM, the “IC50, IFNg, cyno whole blood IL-18+IL-12, donor B7619 (f)” value [1] was 5.1 nM and the “IC50, IFNg, cyno whole blood IL-18+IL-12, donor B8476 (m)” value [1] was 3.3 nM. For the same binder, the “IC50, IFNg, cyno whole blood IL-18+IL-12, donor B9301 (f)” value [1] was 4.7 nM, the “IC50, IFNg, cyno whole blood IL-18+IL-12, donor B9313 (m)” value [1] was 2.4 nM and the “IC50, IFNg, cyno whole blood IL-18+IL-12, donor B9447 (m)” value [1] was 5.1 nM. For the same binder, the “IC50, IFNg, cyno whole blood IL-18+IL-12, donor B9496 (m)” value [1] was 1.9 nM, the “IC50, IFNg, cyno whole blood IL-18+IL-12, donor B21333 (f)” value [1] was 1.8 nM and the “IC50, IFNg, cyno whole blood IL-18+IL-12, donor B21374 (f)” value [1] was 2.5 nM. For the same binder, the “IC50, IFNg, cyno whole blood IL-18+IL-12, donor B21394 (f)” value [1] was 6 nM, the “IC50, IFNg, cyno whole blood IL-18+IL-12, donor B21411 (f)” value [1] was 5.1 nM and the “IC50, IFNg, cyno whole blood IL-18+IL-12, donor B21435 (f)” value [1] was 10.5 nM. For the same binder, the “IC50, IFNg, cyno whole blood IL-18+IL-12, donor B21438 (f)” value [1] was 2.2 nM, the “IC50, IFNg, cyno whole blood IL-18+IL-12, donor B22017 (f)” value [1] was 5.7 nM and the “IC50, IFNg, cyno whole blood IL-18+IL-12, donor B22187 (m)” value [1] was 3.9 nM.
